Reference: the supplement of paper PMC10126150
± gives the standard deviation of the averaged measurements.

System: ATP
Test: switch fluorescence ratio, 500 uM ATP over buffer (Cy3 cluster intensity, sum of 5 cycles each) (fold (ratio)); higher = stronger signal-on switching upon ATP binding; sequences stand for … in TCGTCGGCAGCGTCAGATGTGTATAAGAGACAGTTTTTTTTTTTTTTTTTTTTTTTTT…TC
Conditions: aptamer strand: ATP DNA aptamer (quencher-CACCTGGGGGAGTATTGCGGAGGAAGG + anchor), 100 nM annealed; ATP concentration: 500 uM
Method in brief: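 For every switch-domain sequence, the fluorescence ratio is the mean of per-cluster values, each being summed target-cycle Cy3 intensity over summed buffer-cycle Cy3 intensity. Clusters outside 100-1000 RFU were excluded. On a modified Illumina MiSeq flow-cell, the Cy3-labelled switching-strand clusters were annealed to 100 nM quencher-labelled ATP aptamer, imaged in selection buffer and then after 15 min with 500 uM ATP at 22 °C. Five such cycles were run, with NaOH stripping and re-annealing between them.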
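Note: ATP exposure 15 min at 22 °C before imaging.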

| Sequence | switch fluorescence ratio |
| --- | --- |
| GCAGCTGTAT | 1.08 ± 0.014 |
| TTGCCGGGGC | 0.998 ± 0.017 |
| TAATTGGAGG | 0.9805 ± 0.0051 |
| ACGCGGAGTA | 0.997 ± 0.038 |
| AGTATTTGTA | 1 ± 0.02 |
| AGAAGGGGGA | 1.01 ± 0.039 |
| CAGGTTTGG | 0.982 ± 0.014 |
| GATTTAACGA | 0.985 ± 0.014 |
| GAGGTTGATG | 1.01 ± 0.02 |
| TATGATGCTA | 1.03 ± 0.088 |
| ATTGATTTGT | 0.975 ± 0.018 |
| TCGGAAGACA | 1.01 ± 0.0069 |
| AAGCTACGGC | 1.02 ± 0.019 |
| CGGGGGGAGC | 1.01 ± 0.056 |
| GAGCGCCGGG | 1.01 ± 0.017 |
| GGTTATTGAG | 0.9799 ± 0.0044 |
| GGGGCACCTC | 1.04 ± 0.015 |
| TTCGGAGTCA | 1.1 ± 0.019 |
| CAGTGATTAT | 1.01 ± 0.018 |
| TGGGGGTATG | 1 ± 0.02 |
| ACATTAGTTT | 1.013 ± 0.0056 |
| TGATTTGGGA | 0.971 ± 0.015 |
| GCAGCCAAGC | 1.14 ± 0.028 |

| Sequence | switch fluorescence ratio |
| --- | --- |
| CTGCTAGATG | 0.983 ± 0.051 |
| GTTTGTAGGG | 0.988 ± 0.037 |
| GATTGAAAGA | 0.986 ± 0.026 |
| ATATAAAATG | 0.986 ± 0.0046 |
| TCCGAGTGAG | 1.13 ± 0.058 |
| AAGTACTTGG | 1.17 ± 0.017 |
| TGGCGTTTTT | 1.01 ± 0.023 |
| GTTGTAGCAC | 1.07 ± 0.029 |
| AGTTTTCCCT | 1.01 ± 0.015 |
| TTTTACGGGC | 1.018 ± 0.0039 |
| ATGGAGAACT | 0.976 ± 0.024 |
| GGTGACTGGG | 0.903 ± 0.042 |
| GGAGAGGGTT | 1.022 ± 0.0044 |
| TTTAAAGGGA | 1.06 ± 0.17 |
| GCTCGGCCCG | 1.04 ± 0.061 |
| TGATTTAAGT | 0.992 ± 0.05 |
| AGCGAGTGTG | 1 ± 0.026 |
| TGCCGTTTTT | 1.02 ± 0.069 |
| TTTTGAAAGA | 1.01 ± 0.062 |
| TTTCTTTGCA | 1.058 ± 0.0081 |
| TTTGGAGTGT | 1.08 ± 0.12 |
| TCGGGGCGGG | 1.01 ± 0.056 |
| TAAAGGGCAC | 1.011 ± 0.0093 |

| Sequence | switch fluorescence ratio |
| --- | --- |
| TTTAAAGCAG | 1.01 ± 0.02 |
| CAGATTTAAG | 0.994 ± 0.017 |
| TTAGTAGTTT | 0.976 ± 0.015 |
| TTTAGATATA | 1.031 ± 0.0011 |
| TATCTGGCTT | 1.019 ± 0.0013 |
| CCGGGTAGTA | 1.12 ± 0.11 |
| TATAGAGGTT | 0.992 ± 0.015 |
| GGGGCGGTTT | 1.01 ± 0.046 |
| ATAATTTTGG | 0.973 ± 0.017 |
| CGTTGGAGCG | 1 ± 0.03 |
| TTTGGCGTTG | 0.9881 ± 0.0086 |
| ACGTTAGGGG | 1.14 ± 0.14 |
| GGCGGCGCAA | 1.51 ± 0.16 |
| TACGGCTGGT | 1.008 ± 0.0031 |
| CTGATCAATG | 1.1 ± 0.02 |
| TACTCACTGT | 1.219 ± 0.0069 |
| AACGTGTTTT | 1.042 ± 0.006 |
| GGATAGTGCT | 0.993 ± 0.012 |
| CAGATCAGTA | 0.964 ± 0.015 |
| CGTTGGTGGC | 0.9457 ± 0.0066 |
| ATTTGTTTTA | 1.08 ± 0.17 |
| TTCAGAGGAT | 1.02 ± 0.048 |
| ATGTGAATTG | 1.01 ± 0.019 |

| Sequence | switch fluorescence ratio |
| --- | --- |
| TTGTCGGTTT | 0.983 ± 0.014 |
| CCGTCAGGCG | 1.039 ± 0.0067 |
| TTCCACATCC | 1.07 ± 0.044 |
| AAATCACGTA | 1.1818 ± 4.2e-05 |
| AAAAGGCCGT | 1.02 ± 0.0058 |
| TACATGTTAG | 1.01 ± 0.024 |
| GGACCGTTTT | 0.998 ± 0.016 |
| ATGGGAGCCA | 1 ± 0.028 |
| ATACGCAGCG | 0.998 ± 0.01 |
| TTTAAAGTTT | 0.99 ± 0.029 |
| TCTGCGGGGA | 1.14 ± 0.21 |
| AATTTAGGGT | 1.01 ± 0.028 |
| AATTTTTTGT | 1.01 ± 0.033 |
| CTCCCCGGGT | 3 ± 1.1 |
| CGCTGTGATG | 1.013 ± 0.0053 |
| TGGGAGGGTC | 1.12 ± 0.14 |
| AGTTGCGGTC | 0.9516 ± 0.0041 |
| TTAAATAAGT | 1 ± 0.025 |
| CTTGACTGTG | 1.03 ± 0.011 |
| TTAGGAGGTT | 0.965 ± 0.028 |
| GGTTGATTAT | 0.9793 ± 0.0065 |
| TCAAGTTTG | 1.011 ± 0.0069 |
| TCAAACAGCG | 0.9861 ± 0.00055 |

| Sequence | switch fluorescence ratio |
| --- | --- |
| ATGCGTGGGG | 1.02 ± 0.029 |
| AAATTACATT | 1.02 ± 0.021 |
| TAAGGCGAAC | 1.03 ± 0.015 |
| TTCCTGGTCA | 0.997 ± 0.012 |
| GAATAACTGG | 0.993 ± 0.084 |
| GCGGTTCTC | 1.03 ± 0.029 |
| GAGGAACGTG | 0.967 ± 0.014 |
| TTTACTTTGG | 0.982 ± 0.034 |
| ATCATACCGG | 1 ± 0.035 |
| CATTCTGATC | 1 ± 0.056 |
| GTTACTGGAC | 1.12 ± 0.14 |
| TATTAAGTTT | 1.02 ± 0.039 |
| CGGTGGGTC | 1.009 ± 0.0047 |
| CGGACGGCTC | 1.093 ± 0.01 |
| AGGAAGGCGG | 1.02 ± 0.035 |
| ATCAATATGT | 0.996 ± 0.029 |
| AGAAAGGGCG | 0.94 ± 0.037 |
| TCGTTTTTTA | 1.22 ± 0.45 |
| CGAGAAGTTC | 1.02 ± 0.091 |
| AAGTATATTG | 0.991 ± 0.025 |
| CGAGTGGGGG | 0.987 ± 0.029 |
| GCATGCTGGT | 1.01 ± 0.024 |
| AATCGCTAGC | 1.02 ± 0.011 |

| Sequence | switch fluorescence ratio |
| --- | --- |
| GGGTGTGAGG | 0.983 ± 0.025 |
| CTTTTACCGG | 1.04 ± 0.013 |
| AGGCCATAAG | 0.9953 ± 0.0034 |
| GTGTAGAAAT | 0.9834 ± 0.0068 |
| TCAGACTCAG | 0.992 ± 0.021 |
| TGTTTGTGTT | 0.977 ± 0.013 |
| TCTAGCGTAC | 2.64 ± 0.44 |
| TACCTAGTTA | 1.03 ± 0.029 |
| CCGGTGCTCG | 1.04 ± 0.047 |
| GGATGCAGCT | 1.12 ± 0.1 |
| GTTCACGTAA | 1.16 ± 0.15 |
| AAGGGCTCAT | 0.97409 ± 0.00079 |
| AAGGGTGCTA | 0.9787 ± 0.0016 |
| TTTTCATCAT | 1.01 ± 0.031 |
| CAATTGCTGT | 1.01 ± 0.012 |
| TTGGCATTTA | 1.034 ± 0.0054 |
| AATCTGGCTG | 0.991 ± 0.023 |
| GGGGGAGGAG | 0.996 ± 0.013 |
| TTTGTGGGG | 0.978 ± 0.023 |
| ACAGTAGGA | 1.06 ± 0.013 |
| TGGTCAAAAA | 0.9972 ± 0.0036 |
| GATATTTTCG | 1.01 ± 0.035 |
| TGACGCATAG | 1.7 ± 0.12 |

| Sequence | switch fluorescence ratio |
| --- | --- |
| GGGGTAGTG | 1.03 ± 0.067 |
| GGTAACTTGG | 1.01 ± 0.034 |
| CCGGACCCAA | 1.75 ± 0.23 |
| TTGTGACAGT | 1.01 ± 0.024 |
| TTGGGAGGGG | 1.04 ± 0.083 |
| GTTAGGCCAG | 0.986 ± 0.041 |
| AGTTGAGCTT | 0.987 ± 0.013 |
| TGAGGGTCCT | 1.02 ± 0.01 |
| GATTATAGAT | 1 ± 0.015 |
| ATGGGTTGTG | 1 ± 0.03 |
| AGATTGCCGG | 0.97 ± 0.034 |
| ATGATTTTGT | 1.013 ± 0.01 |
| ATTCGATATC | 1.03 ± 0.012 |
| TAGTCATGCG | 1.04 ± 0.026 |
| TTGGTTGGGG | 1 ± 0.03 |
| TTTTATGCAA | 1.28 ± 0.3 |
| TCGAGGGGTT | 0.993 ± 0.011 |
| CATGAATATT | 0.99 ± 0.037 |
| TTTTTGGACT | 0.983 ± 0.012 |
